Data set [1] has as its system O=[N+]([O-])c1ccc(OP(=O)(O)Oc2ccc([N+](=O)[O-])cc2)cc1. Put plainly: purified protein. Type of data set: biochemical, uncultured organism. The conditions noted are these: pH 8.5; 25.0 °C.
The target in another data set is PdeM (uncultured organism, UniProt S5THN5). Put plainly: p-nitrophenol release, absorbance […] nm, Michaelis-Menten non-linear fit. The conditions noted are these: 2 mM MnCl2, 50 mM Tris-HCl pH 8.5, 5 mM beta-ME, 10 mM NaCl, 25 °C, 30 min. Type of data set: biochemical.
PdeM, sequence (S5THN5 entry or part of it): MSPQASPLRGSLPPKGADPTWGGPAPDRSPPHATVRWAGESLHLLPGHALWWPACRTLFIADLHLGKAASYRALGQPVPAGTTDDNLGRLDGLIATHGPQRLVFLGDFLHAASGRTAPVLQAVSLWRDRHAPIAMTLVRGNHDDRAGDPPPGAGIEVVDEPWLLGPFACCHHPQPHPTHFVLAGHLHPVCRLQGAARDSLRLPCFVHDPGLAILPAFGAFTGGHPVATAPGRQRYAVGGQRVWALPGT

As usually defined, the Km is the substrate concentration at which the rate is half of its maximum. With PdeM (uncultured organism), the Km in data set [1] turned out to be 10.21 ± 1.6 mM.

Take `O=[N+]([O-])c1ccc(OP(=O)(O)c2ccccc2)cc1` [pNPPP]: the Km at PdeM turned out to be 7.2 ± 1.4 mM.
